B1: E356Q + D357N + E359Q + D360N: RbAp46 mutated in the charged PP loop (protein, UniProt Q16576 2-425, looked up, variant E356Q D357N E359Q D360N)
Histone-binding protein RBBP7: ASKEMFEDTVEERVINEEYKIWKKNTPFLYDLVMTHALQWPSLTVQWLPEVTKPEGKDYALHWLVLGTHTSDEQNHLVVARVHIPNDDAQFDASHCDSDKGEFGGFGSVTGKIECEIKINHEGEVNRARYMPQNPHIIATKTPSSDVLVFDYTKHPAKPDPSGECNPDLRLRGHQKEGYGLSWNSNLSGHLLSASDDHTVCLWDINAGPKEGKIVDAKAIFTGHSAVVEDVAWHLLHESLFGSVADDQKLMIWDTRSNTTSKPSHLVDAHTAEVNCLSFNPYSEFILATGSADKTVALWDLRNLKLKLHTFESHKDEIFQVHWSPHNETILASSGTDRRLNVWDLSKIGEEQSAQNAQNGPPELLFIHGGHTAKISDFSWNPNEPWVICSVSEDNIMQIWQMAENIYNDEESDVTTSELEGQGS
B2: L30Y: RbAp46 mutated in the hydrophobic surface of helix 1 (protein)
chain: MASKEMFEDTVEERVINEEYKIWKKNTPFYYDLVMTHALQWPSLTVQWLPEVTKPEGKDYALHWLVLGTHTSDEQNHLVVARVHIPNDDAQFDASHCDSDKGEFGGFGSVTGKIECEIKINHEGEVNRARYMPQNPHIIATKTPSSDVLVFDYTKHPAKPDPSGECNPDLRLRGHQKEGYGLSWNSNLSGHLLSASDDHTVCLWDINAGPKEGKIVDAKAIFTGHSAVVEDVAWHLLHESLFGSVADDQKLMIWDTRSNTTSKPSHLVDAHTAEVNCLSFNPYSEFILATGSADKTVALWDLRNLKLKLHTFESHKDEIFQVHWSPHNETILASSGTDRRLNVWDLSKIGEEQSAEDAEDGPPELLFIHGGHTAKISDFSWNPNEPWVICSVSEDNIMQIWQMAENIYNDE
modifications: 35S-labeled
notes: RbAp46 mutated in the hydrophobic surface of helix 1

Tested on: GST-histone H4 1–48
Assay: Pull-down of 35S-labeled RbAp46 mutants with GST-histone H4 1–48
Type: binding
Conditions: autoradiogram, 300 mM NaCl, 20 mM Tris pH 8.0, 5 mM DTT, 0.1% (v/v) NP-40
Description: Figure 2 Histone H4 Recognition by the RbAp46-Binding Pocket (A) Electrostatic surface potential of RbAp46 contoured and color coded at −91 kT (red) and +91 kT (blue). […] The histone H4 peptide is shown as a stick model. The histone H4-binding pocket in RbAp46 is mainly formed by the negatively charged PP loop (which terminates in Pro-362 and Pro-363) and a hydrophobic surface on the N-terminal α helix (helix 1). The interaction of histone H4 residues (Gln-27, Lys-31, Ile-34, Arg-35, Arg-36, Leu-37, Arg-39, and Arg-40) is shown. (B) Detailed view showing the interactions of the hydrophobic Ile-34 and Leu-37 histone H4 residues with Phe-29 and Leu-30 in helix 1 of RbAp46, as well as the positively charged Arg-36, Arg-39, and Arg-40 histone H4 residues with the backbone carbonyl groups in the PP loop and a cluster of acidic residues (Glu-356, Asp-357, and Asp-360) in RbAp46. […] In each experiment, the input lane contains 30% of the ^35S-labeled RbAp46 protein used in each of the pull-down assays. The experiments were carried out in 300 mM NaCl, 20 mM Tris (pH 8.0), 5 mM DTT, and 0.1% (v/v) NP-40.
Recombinant histone H4 and RbAp46 proteins were expressed and purified as described previously ([Verreault et al., 1998; Berger et al., 2004]). Detailed procedures for the generation of the RbAp46/histone H4 peptide and recombinant histone H4 complexes can be found in the Supplemental Data. […]

Molecule | Effect of RbAp46 mutation on interaction with histone H4
B1 | disrupt the interaction with histone H4
B2 | disrupt the interaction with histone H4

— article PMC2572730, “Structural Basis for the Recognition of Histone H4 by the Histone-Chaperone RbAp46” (Structure(London, England:1993), 2008)
